The values below come from patent US20260042834A1, “ANTI-CORTICOTROPIN-RELEASING HORMONE ANTIBODIES AND POLYCYSTIC OVARY SYNDROME” (HBM ALPHA THERAPEUTICS, INC., priority 2022, published 2026).

Where only a bound is given, the exact number is not on record here.

One experiment deals with mouse CRHR2. The experiment in a line: CRH-induced luciferase reporter blocking assay, CHO-CRE-mCRHR2 cells. It is filed as cell-based. The protocol:
To create CHO-CRE-hCRHR1, -hCRHR2, -mCRHR1, and -mCRHR2 reporter cell lines, pcDNA3.1-hCRHR1, -hCRHR2, -mCRHR1, and -mCRHR2 were introduced into CHO-CRE cells established above by electroporation as described above. Selection antibiotics hygromycin at 500 μg/ml and G418 at 1,000 μg/ml were employed. Individual established stable cell lines were characterized by both CRH and forskolin stimulation. […]
(§1) Cells were digested by trypsin-EDTA (Life technologies, Cat #:12604-013), centrifuged at 1,000 rpm for 5 min, resuspended in growth medium, counted using a cell counter, seeded at a concentration of 5,000 cells per 100 μl in 96-well flat plates, and incubated overnight. 50 μl of 4× serially diluted antibodies was added (8 points, 1/4 diluted by growth medium) to plates containing CHO-CRE-hCRHR1 cells, and 50 μl of 4×CRH (4× is 2 nM, final is 0.5 nM) was added. Similarly, 4×CRH (4× is 0.4 nM, final is 0.1 nM) was added to CHO-CRE-hCRHR2 cells and CHO-CRE-mCRHR1 cells, and 4×CRH (4× is 20 nM, final is 5 nM) was added to CHO-CRE-mCRHR2 cells. Next, plates were incubated 4-6 hours at 37° C. in a CO2 incubator. 60 μl of culture medium was removed, to which was added 60 μl of Bio-Glo luciferase, followed by incubation for 10 min at RT. Plates were read in a luciferase plate reader (EnVision, PerkinElmer).

Another experiment relates to human CRHR2. The experiment in a line: CRH-induced luciferase reporter blocking assay, CHO-CRE-hCRHR2 cells. It is filed as cell-based. The protocol:
To create CHO-CRE-hCRHR1, -hCRHR2, -mCRHR1, and -mCRHR2 reporter cell lines, pcDNA3.1-hCRHR1, -hCRHR2, -mCRHR1, and -mCRHR2 were introduced into CHO-CRE cells established above by electroporation as described above. Selection antibiotics hygromycin at 500 μg/ml and G418 at 1,000 μg/ml were employed. Individual established stable cell lines were characterized by both CRH and forskolin stimulation.
Activated GPCR proteins increase production of the intracellular cAMP. CHO-CRE-human CRHR1 stable clone 11 was generated by introduction of pcDNA3.1-human CRHR1 under the selection of G418 and hygromycin. Human CRHR1 expression in CHO-CRE-hCRHR1 Clone 11 was confirmed by flow cytometry (data not shown). To further validate that the cell line was functional, CHO-CRE-hCRHR1 Clone 11 cells were treated with forskolin and CRH peptide. […] Subsequently CHO-CRE-hCRHR2 Clone 32, -mCRHR1 Clone 22, and -mCRHR2 Clone 8 cell lines were established using similar methodology and validated with CRH treatment (data not shown).
Blocking CRHR1 by small molecules or neutralization of CRH peptide can reduce luciferase expression if the CRH-CRHR1 system works in CHO-CRE-hCRHR1 cells. Antalarmin, a small molecule CRHR1 antagonist, blocked CRH-mediated luciferase expression in CHO-CRE-hCRHR1 Clone 11 (data not shown). Furthermore, sheep anti-CRH polyclonal antibody reduced CRH-mediated luciferase expression in these cells (data not shown). Likewise, sheep anti-CRH polyclonal antibody blocked CRH-mediated luciferase expression in CHO-CRE-hCRHR2, CHO-CRE-mCRHR1, and CHO-CRE-mCRHR2 cells (data not shown).
as §1

The target in another experiment is T1, biotinylated CRH (Homo sapiens, UniProt P06850).
T1 construct: purchased GL Biochem 784751
T1 sequence (P06850 154-194): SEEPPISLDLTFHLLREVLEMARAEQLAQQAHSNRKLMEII
The experiment in a line: Affinity determination with Octet. Format: binding. The protocol:
Octet® Red 96e was used for affinity measurement. Octet® running buffer was prepared by diluting kinetics buffer 10× (Fortebio, Cat #18-1105) in PBS according to the manufacturer's instructions. Two columns of SA sensors (Fortebio, Cat #18-5019) were hydrated in running buffer for 10 mins, one for ligand capturing and the other for reference. Antibodies were 2-fold diluted and added into a 96-well plate. 30 nM biotinylated CRH (GL Biochem, Cat #784751) was captured by the first column of SA sensors for 20 seconds, while reference sensors were dipped into buffer wells. After a 60-second baseline step, sensors were dipped into analyte and buffer wells successively, with the association and dissociation time of 180 seconds and 800 seconds, respectively. Sensors were regenerated in glycine pH1.5 (Cytiva, Cat #BR-1003-54) before the next cycle. […] Signals of reference wells and reference sensors were subtracted by selecting “Double reference” before data fitting.

The mark [1] stands for this setting: CHO-CRE-hCRHR2 cells, 0.1 nM CRH.

B1: PR302341-19: humanized variant of Series 10 mAb PR302341; VH SEQ ID NO: 282, VL SEQ ID NO: 340 (antibody, V domains shown)
VH: QVQLVQSGAEVKKPGASVKVSCKASGYTFTDYFMKWVRQAPGQGLEWMGVINPNNGDIFYNQKFKGRVTMTRDTSTSTVYMELSSLRSEDTAVYYCARGTDRALFAYWGQGTLVTVSS
VL: DVVMTQSPLSLPVTLGQPASISCRSGQSIVHSDGNTYLEWYQQRPGQSPRLLIYKVSNRFSGVPDRFSGSGSGTDFTLKISRVEAEDLGVYYCFQGSHIPWTFGGGTKVEIK
modifications: PR302341-13 VH, PR302341-19 VH; PR302341-19 VL, PR302341-20 VL, PR302341-21 VL, PR302341-22 VL,PR302341-23 VL, PR302341-28 VL, PR302341-29 VL, PR302341-2 VL,PR302341-41 VL, PR302341-55 VL, PR302341-56 VL, PR302341-57 VL,PR302341-
Regarding B1, the 50% inhibitory concentration (IC50) in the experiment with mouse CRHR2 (CHO-CRE-mCRHR2 cells, 5 nM CRH) turned out to be 0.673 nM; with human CRHR2 (setting [1]), 0.178 nM.

B2: PR302341-20: humanized variant of Series 10 mAb PR302341; VH SEQ ID NO: 283, VL SEQ ID NO: 340 (antibody, V domains shown)
VH: QVQLVQSGAEVKKPGASVKVSCKASGYTFTDYFMKWVRQAPGQRLEWMGVINPNNGDIFYNQKFKGRVTITRDTSASTAYMELSSLRSEDTAVYYCARGTDRALFAYWGQGTLVTVSS
VL: DVVMTQSPLSLPVTLGQPASISCRSGQSIVHSDGNTYLEWYQQRPGQSPRLLIYKVSNRFSGVPDRFSGSGSGTDFTLKISRVEAEDLGVYYCFQGSHIPWTFGGGTKVEIK
modifications: PR302341-15 VH, PR302341-20 VH, PR302341-70 VH, PR302341-71 VH,PR302341-72 VH; PR302341-19 VL, PR302341-20 VL, PR302341-21 VL, PR302341-22 VL,PR302341-23 VL, PR302341-28 VL, PR302341-29 VL, PR302341-2 VL,PR302341-41 VL, PR302341-55 VL, PR302341-56 VL, PR302341-57 VL,PR302341-
In the case of B2, the IC50 in the experiment with mouse CRHR2 (CHO-CRE-mCRHR2 cells, 5 nM CRH) worked out at 0.602 nM; with mouse CRHR2 (Table 9, mCrhr2) it was 1.98 nM; in the experiment with human CRHR2 (setting [1]) it was 0.263 nM; in the experiment on human CRHR2 (Table 9, hCRHR2) it was 1.21 nM.

B3: PR302341-24: humanized variant of Series 10 mAb PR302341; VH SEQ ID NO: 284, VL SEQ ID NO: 336 (antibody, V domains shown)
VH: QVQLVQSGAEVKKPGASVKVSCKASGYTFTDYFMKWVRQAPGQRLEWMGVINPNNGDIFYNQKFKGRVTITVDKSASTAYMELSSLRSEDTAVYYCARGTDRALFAYWGQGTLVTVSS
VL: DVVMTQTPLSSPVTLGQPASISCRSGQSIVHSDGNTYLEWYQQRPGQPPRLLIYKVSNRFSGVPDRFSGSGAGTDFTLKISRVEAEDLGVYYCFQGSHIPWTFGGGTKVEIK
modifications: PR302341-16 VH, PR302341-21 VH, PR302341-24 VH, PR302341-25 VH; PR302341-10 VL, PR302341-24 VL, PR302341-26 VL, PR302341-43 VL,PR302341-44 VL, PR302341-45 VL, PR302341-4 VL
As to B3, the IC50 in the experiment with mouse CRHR2 (CHO-CRE-mCRHR2 cells, 5 nM CRH) is roughly 0.457 nM; with human CRHR2 (setting [1]) it was 0.099 nM.

B4: PR302341-21: humanized variant of Series 10 mAb PR302341; VH SEQ ID NO: 284, VL SEQ ID NO: 340 (antibody, V domains shown)
VH: QVQLVQSGAEVKKPGASVKVSCKASGYTFTDYFMKWVRQAPGQRLEWMGVINPNNGDIFYNQKFKGRVTITVDKSASTAYMELSSLRSEDTAVYYCARGTDRALFAYWGQGTLVTVSS
VL: DVVMTQSPLSLPVTLGQPASISCRSGQSIVHSDGNTYLEWYQQRPGQSPRLLIYKVSNRFSGVPDRFSGSGSGTDFTLKISRVEAEDLGVYYCFQGSHIPWTFGGGTKVEIK
modifications: PR302341-16 VH, PR302341-21 VH, PR302341-24 VH, PR302341-25 VH; PR302341-19 VL, PR302341-20 VL, PR302341-21 VL, PR302341-22 VL,PR302341-23 VL, PR302341-28 VL, PR302341-29 VL, PR302341-2 VL,PR302341-41 VL, PR302341-55 VL, PR302341-56 VL, PR302341-57 VL,PR302341-
For the molecule B4, the IC50 with mouse CRHR2 (CHO-CRE-mCRHR2 cells, 5 nM CRH) came out at 0.633 nM; in the experiment with human CRHR2 (setting [1]), 0.272 nM.

B5: PR302341-23: humanized variant of Series 10 mAb PR302341; VH SEQ ID NO: 286, VL SEQ ID NO: 340 (antibody, V domains shown)
VH: QVQLVQSGAEVKKPGASVKVSCKASGYTFTDYFMKWVRQAPGQGLEWMGVINPNNGDIFYNQKFKGRVTMTVDKSISTAYMELSRLRSDDTAVYYCARGTDRALFAYWGQGTLVTVSS
VL: DVVMTQSPLSLPVTLGQPASISCRSGQSIVHSDGNTYLEWYQQRPGQSPRLLIYKVSNRFSGVPDRFSGSGSGTDFTLKISRVEAEDLGVYYCFQGSHIPWTFGGGTKVEIK
modifications: PR302341-18 VH, PR302341-23 VH, PR302341-26 VH, PR302341-27 VH,PR302341-30 VH, PR302341-31 VH, PR302341-42 VH; PR302341-19 VL, PR302341-20 VL, PR302341-21 VL, PR302341-22 VL,PR302341-23 VL, PR302341-28 VL, PR302341-29 VL, PR302341-2 VL,PR302341-41 VL, PR302341-55 VL, PR302341-56 VL, PR302341-57 VL,PR302341-
Take B5: the IC50 in the experiment with mouse CRHR2 (CHO-CRE-mCRHR2 cells, 5 nM CRH) was found to be 0.501 nM; in the experiment on mouse CRHR2 (Table 9, mCrhr2), 1.37 nM; in the experiment with human CRHR2 (setting [1]) it was 0.127 nM; in the experiment with human CRHR2 (Table 9, hCRHR2) it was 1.38 nM.

B6: PR302334-11: humanized variant of Series 9 mAb PR302334; VH SEQ ID NO: 273, VL SEQ ID NO: 329 (antibody, V domains shown)
VH: EVQLVESGGGLVQPGGSLRLSCAASGFTFSTYAMSWVRQAPGKGLEWVASIRSGGTTYYPDSVKGRFTISRDNSKNTLYLQMNSLRAEDTAVYYCTRGIDWGQGTTVTVSS
VL: DIQMTQSSLSASVSLGDRVTITCKASQSVNNDVAWYQQKPGKAPRLLIYYASNRYTGVPSRFSGSGSGTDFTFTISSLQPEDIATYYCQQDYSSWTFGGGTKVEIK
modifications: PR302334-10 VH, PR302334-11 VH, PR302334-12 VH, PR302334-14 VH,PR302334-7 VH, PR302334-8 VH, PR302334-9 VH; PR302334-11 VL, PR302334-5 VL
As for B6, in the experiment with biotinylated CRH, the “kdis” value is less than 1e-07 s⁻¹ and the “kon” value was 684000 M⁻¹ s⁻¹.

B7: PR302309: Series 7 anti-CRH mAb from immunized wildtype mice; VH SEQ ID NO: 260, VL SEQ ID NO: 317 (antibody, V domains shown)
VH: QIQLVQSGPELKKPGETVKISCKASGYTFTNYGMNWVKQAPGKVLKWMGWINTYTGEPIYTDDFKGRFAFSLETSASTAYLQINNLKNEDTATYFCSRSTMITTGGVFAYWGQGTLVTVSA
VL: DVLMAQTPLSLPVSLGDQASISCRSSQTIVHSDGNTYLEWYLQKPGQSPKLLIYKVSNRFSGVPDRFSGSGSGTDFTLKISRVEAEDLGVYYCFQGSHVPWTFGGGTKLEIK
modifications: PR302309-1 VH, PR302309-2 VH, PR302309-3 VH, PR302309-4 VH,PR302309-5 VH, PR302309-6 VH, PR302309 VH; PR302309-13 VL, PR302309-14 VL, PR302309-15 VL, PR302309-16 VL,PR302309 VL
For the molecule B7, in the experiment with biotinylated CRH, the “kdis” value was found to be 4.03e-06 s⁻¹ and the “kon” value came to 263000 M⁻¹ s⁻¹.
